Measured values taken from patent publication US11278600B2, “Human alpha-galactosidase variants” (Codexis, Inc., priority 2014, dated 2022).
Numbering of substitutions follows the chain as printed.

B1: 634 (protein)
chain: LDNGLARTPTMGWLHWERFMCNLDCQEEPDSCISEKLFMEMADRMVSEGWKDAGYEYLCIDDCWMAPQRDSEGRLQADPQRFPHGIRQLANEVHSKGLKLGIYADVGNKTCAGFPGSFGYYDIDAQTFADWGVDLLKFDGCYCDSLENLADGYKHMSLALNRTGRPIVYSCEWPLYMWPFQKPNYTEIRQYCNHWRNFADIDDSWASIKSILDWTSRNQERIVDVAGPGGWNDPDMLVIGNFGLSWDQQVTQMALWAIMAAPLFMSNDLRHISPQAKALLQDKDVIAINQDPLGKQGYQLRKGDNFEVWERPLSGDAWAVAIINRQEIGGPRSYTIPVASLGKGVACNPACFITQLLPVKRQLGFYNWTSRLKSHINPTGTVLLQLENTMQMSLKDLL
modifications: Synthetic Polypeptide sequence of Variant No. 634 of mature Human GLA
B2: 611 (protein)
chain: B1 chain with D43E, E92H, M390Q
modifications: Synthetic Polypeptide sequence of Variant No. 611 of mature Human GLA
B3: 615 (protein)
chain: B1 chain with D43E, S47N, E92H, M390H
modifications: Synthetic Polypeptide sequence of Variant No. 615 of mature Human GLA
B4: 613 (protein)
chain: B1 chain with D43E, S47N, E92H, H271A, M390Q
modifications: Synthetic Polypeptide sequence of Variant No. 613 of mature Human GLA
B5: 614 (protein)
chain: B1 chain with D43E, S47T, E92H
modifications: Synthetic Polypeptide sequence of Variant No. 614 of mature Human GLA
B6: 610 (protein)
chain: B1 chain with D43E, S47T, E92H, M259E, M390Q
modifications: Synthetic Polypeptide sequence of Variant No. 610 of mature Human GLA

test: HTP-analysis of yeast culture supernatants, no challenge (MUGal hydrolysis); assay type: biochemical; conditions: activity of the variant/activity of Rd3BB (SEQ ID NO: 13), yeast supernatant
Outline: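 GLA variants expressed in yeast INVSc1, secreted into SD-Ura broth over 66-84 h at 30° C; clarified supernatants tested without challenge. Supernatant mixed with McIlvaine buffer pH 4.8 and 2 mM MUGal (citrate/KCl, pH 4.6), 37° C for 30-180 min, carbonate-quenched, fluorescence Ex 355/Em 448 nm.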

Molecule	Relative Activity of GLA Variants After No Challenge (NC)
B1	+ (+ = 1.5 to 5 relative activity over Rd3BB (SEQ ID NO: 13))
B2	+ (+ = 1.5 to 5 relative activity over Rd3BB (SEQ ID NO: 13))
B3	+ (+ = 1.5 to 5 relative activity over Rd3BB (SEQ ID NO: 13))
B4	+ (+ = 1.5 to 5 relative activity over Rd3BB (SEQ ID NO: 13))
B5	+ (+ = 1.5 to 5 relative activity over Rd3BB (SEQ ID NO: 13))
B6	+ (+ = 1.5 to 5 relative activity over Rd3BB (SEQ ID NO: 13))

test: HTP-analysis of supernatants pretreated with acid (MUGal hydrolysis); assay type: biochemical; conditions: challenge at pH 3.3; activity of the variant/activity of Rd3BB (SEQ ID NO: 13); yeast supernatant
Outline: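 GLA variants were secreted from INVSc1 yeast grown 66-84 h at 30° C. in SD-Ura with 2% glucose; supernatants were mixed with McIlvaine buffer pH 3.3-4.3 and held at 37° C. for 1-3 h. Residual activity on MUGal at pH 4.8 was then measured by fluorescence.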

Molecule	Relative Activity of GLA Variants After Challenge at pH 3.3
B1	++ (++ = >5 to 10 relative activity over Rd3BB (SEQ ID NO: 13))
B2	+++ (+++ = >10 relative activity over Rd3BB (SEQ ID NO: 13))
B3	++ (++ = >5 to 10 relative activity over Rd3BB (SEQ ID NO: 13))
B4	++ (++ = >5 to 10 relative activity over Rd3BB (SEQ ID NO: 13))
B5	++ (++ = >5 to 10 relative activity over Rd3BB (SEQ ID NO: 13))
B6	+ (+ = 1.5 to 5 relative activity over Rd3BB (SEQ ID NO: 13))

test: HTP-analysis of supernatants pretreated with base (MUGal hydrolysis); assay type: biochemical; conditions: challenge at pH 9.7; activity of the variant/activity of Rd3BB (SEQ ID NO: 13); yeast supernatant
Outline: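 GLA variants secreted from yeast INVSc1; culture supernatants pre-incubated with McIlvaine buffer pH 7.0–8.2 or 200 mM bicarbonate pH 9.1–9.7 at 37° C. for 1–18 h. Residual activity: MUGal (4 mM stock) hydrolysis at pH 4.3–4.8, 37° C., 30–180 min, carbonate quench; fluorescence Ex 355/Em 448 nm.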

Molecule	Relative Activity of GLA Variants After Challenge at pH 9.7
B1	++ (++ = >5 to 10 relative activity over Rd3BB (SEQ ID NO: 13))
B2	++ (++ = >5 to 10 relative activity over Rd3BB (SEQ ID NO: 13))
B3	++ (++ = >5 to 10 relative activity over Rd3BB (SEQ ID NO: 13))
B4	++ (++ = >5 to 10 relative activity over Rd3BB (SEQ ID NO: 13))
B5	++ (++ = >5 to 10 relative activity over Rd3BB (SEQ ID NO: 13))
B6	− (− = <1.5 relative activity to Rd3BB (SEQ ID NO: 13))
